Measurements reported in PMC9482650, “Quantitative fragmentomics allow affinity mapping of interactomes” (Nature Communications, 2022).

T1: DLG3_2, Q92796
T1 sequence (Q92796 221-321, limits assumed, looked up): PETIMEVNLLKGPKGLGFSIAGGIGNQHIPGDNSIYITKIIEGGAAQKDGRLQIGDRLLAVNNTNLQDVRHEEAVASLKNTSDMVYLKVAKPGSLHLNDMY

T2: HTRA3, P83110
T2 sequence (P83110 354-453, limits assumed, looked up): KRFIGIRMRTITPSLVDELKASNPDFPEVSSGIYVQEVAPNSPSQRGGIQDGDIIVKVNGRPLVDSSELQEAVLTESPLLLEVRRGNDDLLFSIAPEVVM

T3: APBA1_1, Q02410
T3 sequence (Q02410 651-752, limits assumed, looked up): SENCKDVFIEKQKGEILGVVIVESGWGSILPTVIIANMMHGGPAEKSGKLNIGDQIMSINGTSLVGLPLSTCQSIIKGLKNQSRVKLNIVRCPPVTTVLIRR

T4: RHPN1, Q8TCX5
T4 sequence (Q8TCX5 508-602, limits assumed, looked up): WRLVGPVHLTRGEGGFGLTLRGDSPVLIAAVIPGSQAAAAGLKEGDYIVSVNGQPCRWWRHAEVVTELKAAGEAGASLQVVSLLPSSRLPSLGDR

T5: NHERF3_3, Q5T2W1
T5 sequence (Q5T2W1 238-333, limits assumed, looked up): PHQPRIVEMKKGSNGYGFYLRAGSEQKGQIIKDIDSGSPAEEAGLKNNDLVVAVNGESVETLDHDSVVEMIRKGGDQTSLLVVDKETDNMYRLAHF

T6: SNTA1, Q13424
T6 sequence (Q13424 82-180, limits assumed, looked up): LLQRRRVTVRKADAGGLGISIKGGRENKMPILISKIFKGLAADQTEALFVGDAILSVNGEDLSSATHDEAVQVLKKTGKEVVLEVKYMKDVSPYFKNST

T7: ARHGEF11, O15085
T7 sequence (O15085 42-136, limits assumed, looked up): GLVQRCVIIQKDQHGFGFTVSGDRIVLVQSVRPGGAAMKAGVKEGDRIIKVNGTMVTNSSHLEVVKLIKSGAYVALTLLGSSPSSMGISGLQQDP

T8: LIN7B, Q9HAP6
T8 sequence (Q9HAP6 88-185, limits assumed, looked up): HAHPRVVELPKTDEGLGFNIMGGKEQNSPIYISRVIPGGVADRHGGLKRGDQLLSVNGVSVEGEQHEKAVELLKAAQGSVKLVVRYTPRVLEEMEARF

T9: FRMPD1, Q5SYB0
T9 sequence (Q5SYB0 52-145, limits assumed, looked up): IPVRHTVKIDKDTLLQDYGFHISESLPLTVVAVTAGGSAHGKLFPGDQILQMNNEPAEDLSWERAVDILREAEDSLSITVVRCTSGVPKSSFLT


What was measured:
Experiment in all cases: holdup assay
Parameters in all cases: key: below the threshold = too weak to quantify, mostly under pKd 3.1 to 4
Conditions in all cases: plain residues with an end cap or a label only (N-terminal biotin on a linker: ado-ado)
Inadl_1, Q8NI35 = molecular target: Inadl_1, Q8NI35
DLG3_2, Q92796 = molecular target: T1, DLG3_2, Q92796
HTRA3, P83110 = molecular target: T2, HTRA3, P83110
APBA1_1, Q02410 = molecular target: T3, APBA1_1, Q02410
LNX1_3, Q8TBB1 = molecular target: LNX1_3, Q8TBB1
GIPC2, Q8TF65 = molecular target: GIPC2, Q8TF65
FRMPD2_3, Q68DX3 = molecular target: FRMPD2_3, Q68DX3
PARD3_3, Q8TEW0 = molecular target: PARD3_3, Q8TEW0
MAGI2_3, Q86UL8 = molecular target: MAGI2_3, Q86UL8
RHPN1, Q8TCX5 = molecular target: T4, RHPN1, Q8TCX5
DLG4_2, P78352 = molecular target: DLG4_2, P78352
MAGI3_2, Q5TCQ9 = molecular target: MAGI3_2, Q5TCQ9
NHERF3_3, Q5T2W1 = molecular target: T5, NHERF3_3, Q5T2W1
SNTA1, Q13424 = molecular target: T6, SNTA1, Q13424
ARHGEF11, O15085 = molecular target: T7, ARHGEF11, O15085
LIN7B, Q9HAP6 = molecular target: T8, LIN7B, Q9HAP6
MAGI1_2, Q96QZ7 = molecular target: MAGI1_2, Q96QZ7
Inadl_10, Q8NI35 = molecular target: Inadl_10, Q8NI35
Inadl_6, Q8NI35 = molecular target: Inadl_6, Q8NI35
LNX1_2, Q8TBB1 = molecular target: LNX1_2, Q8TBB1
FRMPD2_1, Q68DX3 = molecular target: FRMPD2_1, Q68DX3
Inadl_8, Q8NI35 = molecular target: Inadl_8, Q8NI35
MAST2, Q6P0Q8 = molecular target: MAST2, Q6P0Q8
NHERF4_4, Q86UT5 = molecular target: NHERF4_4, Q86UT5
Inadl_4, Q8NI35 = molecular target: Inadl_4, Q8NI35
GORASP1, Q9BQQ3 = molecular target: GORASP1, Q9BQQ3
FRMPD1, Q5SYB0 = molecular target: T9, FRMPD1, Q5SYB0
GOPC, Q9HD26 = molecular target: GOPC, Q9HD26

Chain of FRMPD2_1, Q68DX3 (Q68DX3 770-861): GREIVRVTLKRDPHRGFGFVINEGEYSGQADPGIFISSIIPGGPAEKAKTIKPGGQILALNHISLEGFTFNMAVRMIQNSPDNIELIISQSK
Chain of Inadl_8, Q8NI35 (Q8NI35 1425-1530): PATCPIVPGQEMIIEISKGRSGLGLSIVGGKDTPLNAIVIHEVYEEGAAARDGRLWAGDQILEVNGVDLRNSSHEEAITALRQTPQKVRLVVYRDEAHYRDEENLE
Chain of MAGI1_2, Q96QZ7 (Q96QZ7 456-580): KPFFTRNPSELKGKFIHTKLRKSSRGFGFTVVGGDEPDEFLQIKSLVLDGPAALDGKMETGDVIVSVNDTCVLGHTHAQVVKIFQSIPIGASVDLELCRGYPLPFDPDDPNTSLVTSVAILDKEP
Chain of Inadl_1, Q8NI35 (Q8NI35 113-229): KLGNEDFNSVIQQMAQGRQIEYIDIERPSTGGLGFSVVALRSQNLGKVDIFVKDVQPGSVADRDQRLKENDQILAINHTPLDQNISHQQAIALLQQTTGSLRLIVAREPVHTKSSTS
Chain of GIPC2, Q8TF65 (Q8TF65 112-203): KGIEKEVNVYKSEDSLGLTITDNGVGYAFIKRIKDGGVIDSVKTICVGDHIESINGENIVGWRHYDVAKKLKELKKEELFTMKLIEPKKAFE
Chain of Inadl_10, Q8NI35 (Q8NI35 1673-1763): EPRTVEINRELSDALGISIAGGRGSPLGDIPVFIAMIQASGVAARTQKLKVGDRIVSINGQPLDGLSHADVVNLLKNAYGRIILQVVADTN
Chain of LNX1_3, Q8TBB1 (Q8TBB1 500-596): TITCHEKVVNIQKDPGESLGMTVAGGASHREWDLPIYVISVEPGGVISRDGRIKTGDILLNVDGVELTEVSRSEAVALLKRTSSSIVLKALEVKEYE
Chain of DLG4_2, P78352 (P78352 155-259): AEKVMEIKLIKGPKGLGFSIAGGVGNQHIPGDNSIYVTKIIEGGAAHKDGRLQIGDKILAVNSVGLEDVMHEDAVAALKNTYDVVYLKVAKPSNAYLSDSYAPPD
Chain of MAGI3_2, Q5TCQ9 (Q5TCQ9 398-503): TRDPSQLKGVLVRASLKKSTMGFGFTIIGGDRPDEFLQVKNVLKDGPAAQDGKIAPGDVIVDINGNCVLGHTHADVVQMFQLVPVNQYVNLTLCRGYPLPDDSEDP
Chain of Inadl_4, Q8NI35 (Q8NI35 547-651): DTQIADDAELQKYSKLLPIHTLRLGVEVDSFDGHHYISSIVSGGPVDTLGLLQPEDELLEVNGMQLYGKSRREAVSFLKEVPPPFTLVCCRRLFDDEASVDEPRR
Chain of MAGI2_3, Q86UL8 (Q86UL8 600-682): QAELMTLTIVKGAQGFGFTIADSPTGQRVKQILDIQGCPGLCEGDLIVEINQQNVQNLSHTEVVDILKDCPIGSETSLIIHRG
Chain of LNX1_2, Q8TBB1 (Q8TBB1 371-470): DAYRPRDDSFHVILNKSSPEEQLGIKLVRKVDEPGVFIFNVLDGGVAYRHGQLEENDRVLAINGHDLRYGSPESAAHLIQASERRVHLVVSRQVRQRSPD
Chain of NHERF4_4, Q86UT5 (Q86UT5 464-550): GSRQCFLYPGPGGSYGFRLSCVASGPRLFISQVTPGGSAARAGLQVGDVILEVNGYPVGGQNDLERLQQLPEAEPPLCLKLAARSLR
Chain of PARD3_3, Q8TEW0 (Q8TEW0 582-685): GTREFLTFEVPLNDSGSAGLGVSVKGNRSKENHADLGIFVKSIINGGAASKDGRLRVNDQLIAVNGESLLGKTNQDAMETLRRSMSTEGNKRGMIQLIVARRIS
Chain of FRMPD2_3, Q68DX3 (Q68DX3 1073-1166): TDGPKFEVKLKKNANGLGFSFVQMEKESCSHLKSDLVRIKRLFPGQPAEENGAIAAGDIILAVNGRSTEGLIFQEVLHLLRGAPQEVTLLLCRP
Chain of MAST2, Q6P0Q8 (Q6P0Q8 1099-1202): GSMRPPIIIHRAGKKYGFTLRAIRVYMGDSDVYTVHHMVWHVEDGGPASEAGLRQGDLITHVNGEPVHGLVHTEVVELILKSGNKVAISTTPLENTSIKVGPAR
Chain of GORASP1, Q9BQQ3 (Q9BQQ3 1-208): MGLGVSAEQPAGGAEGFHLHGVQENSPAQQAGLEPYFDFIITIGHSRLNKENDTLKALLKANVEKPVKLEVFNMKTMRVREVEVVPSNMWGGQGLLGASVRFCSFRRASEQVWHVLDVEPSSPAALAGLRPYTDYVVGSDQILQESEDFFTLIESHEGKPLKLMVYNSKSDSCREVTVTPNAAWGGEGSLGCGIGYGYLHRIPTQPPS
Chain of Inadl_6, Q8NI35 (Q8NI35 1058-1167): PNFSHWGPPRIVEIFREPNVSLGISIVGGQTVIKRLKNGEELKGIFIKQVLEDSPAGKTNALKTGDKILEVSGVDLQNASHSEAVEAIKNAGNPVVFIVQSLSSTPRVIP

Binder | pKd (Inadl_1, Q8NI35) | pKd (DLG3_2, Q92796) | pKd (HTRA3, P83110) | pKd (APBA1_1, Q02410) | pKd (LNX1_3, Q8TBB1) | pKd (GIPC2, Q8TF65) | pKd (FRMPD2_3, Q68DX3) | pKd (PARD3_3, Q8TEW0) | pKd (MAGI2_3, Q86UL8) | pKd (RHPN1, Q8TCX5) | pKd (DLG4_2, P78352) | pKd (MAGI3_2, Q5TCQ9) | pKd (NHERF3_3, Q5T2W1) | pKd (SNTA1, Q13424) | pKd (ARHGEF11, O15085) | pKd (LIN7B, Q9HAP6) | pKd (MAGI1_2, Q96QZ7) | pKd (Inadl_10, Q8NI35) | pKd (Inadl_6, Q8NI35) | pKd (LNX1_2, Q8TBB1) | further results
SKSNFGSEPL [KIF17, Q9P2E2] | below the threshold | below the threshold | below the threshold | below the threshold | below the threshold | below the threshold | below the threshold | below the threshold | below the threshold | below the threshold | below the threshold | below the threshold | below the threshold | below the threshold | below the threshold | below the threshold | below the threshold | below the threshold | below the threshold | below the threshold | pKd (FRMPD2_1, Q68DX3): below the threshold; pKd (Inadl_8, Q8NI35): below the threshold; pKd (MAST2, Q6P0Q8): 3.93; pKd (NHERF4_4, Q86UT5): below the threshold; pKd (Inadl_4, Q8NI35): below the threshold; pKd (GORASP1, Q9BQQ3): below the threshold; pKd (FRMPD1, Q5SYB0): below the threshold; pKd (GOPC, Q9HD26): below the threshold
VRNLPESEEL [MYOZ3, Q8TDC0] | below the threshold | below the threshold | below the threshold | below the threshold | below the threshold | below the threshold | below the threshold | below the threshold | below the threshold | below the threshold | below the threshold | below the threshold | below the threshold | 3.57 | 3.83 | below the threshold | below the threshold | below the threshold | below the threshold | below the threshold | pKd (FRMPD2_1, Q68DX3): below the threshold; pKd (Inadl_8, Q8NI35): below the threshold; pKd (MAST2, Q6P0Q8): 4.74; pKd (NHERF4_4, Q86UT5): 3.85; pKd (Inadl_4, Q8NI35): below the threshold; pKd (GORASP1, Q9BQQ3): below the threshold; pKd (FRMPD1, Q5SYB0): below the threshold; pKd (GOPC, Q9HD26): below the threshold
LPHGHSTTRV [NLGN4X, Q8N0W4] | below the threshold | 3.85 | below the threshold | below the threshold | below the threshold | below the threshold | below the threshold | below the threshold | 4.1 | 4.04 | 3.97 | 5.19 | below the threshold | 4.05 | 4.04 | 3.66 | 4.23 | below the threshold | below the threshold | 3.54 | pKd (FRMPD2_1, Q68DX3): below the threshold; pKd (Inadl_8, Q8NI35): 4.33; pKd (MAST2, Q6P0Q8): 5.12; pKd (NHERF4_4, Q86UT5): below the threshold; pKd (Inadl_4, Q8NI35): below the threshold; pKd (GORASP1, Q9BQQ3): 3.76; pKd (FRMPD1, Q5SYB0): below the threshold; pKd (GOPC, Q9HD26): 4.37
YYKRPVQEWV [MMP24, Q9Y5R2] | below the threshold | 4.23 | 5.7 | 3.48 | below the threshold | below the threshold | 3.52 | 3.73 | below the threshold | below the threshold | 4.03 | 3.85 | below the threshold | below the threshold | 4.3 | below the threshold | below the threshold | below the threshold | 3.7 | 3.71 | pKd (FRMPD2_1, Q68DX3): 3.85; pKd (Inadl_8, Q8NI35): 3.69; pKd (MAST2, Q6P0Q8): below the threshold; pKd (NHERF4_4, Q86UT5): below the threshold; pKd (Inadl_4, Q8NI35): below the threshold; pKd (GORASP1, Q9BQQ3): 4.9; pKd (FRMPD1, Q5SYB0): below the threshold; pKd (GOPC, Q9HD26): below the threshold
